Results taken from the supplement of paper PMC10567573.
± gives the standard deviation.

Assay: protein stability index of a GFP-peptide fusion (GPS, HEK-293T) (PSI 1-6); higher = more stable
[1] = treatment: DMSO, c terminus: a fixed tail appended
[2] = treatment: MLN4924 1 uM, 8 h, c terminus: a fixed tail appended
[3] = treatment: DMSO, c terminus: native
[4] = treatment: MLN4924 1 uM, 8 h, c terminus: native
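Note: 24-mer peptide tiles fused after GFP, lentivirally expressed, FACS-sorted into six equal bins by GFP/DsRed ratio, decoded by Illumina sequencing, PSI is the read-weighted mean bin number.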

| Sequence | protein stability index [1] | protein stability index [2] | protein stability index [3] | protein stability index [4] |
| --- | --- | --- | --- | --- |
| IQECVPEDLELKKKIFAQLDSIID [CRYL1] | 3.07 ± 0.2 | 3.33 ± 0.34 | – | – |
| HHVEREKDHSSSRPSSPRPQKASP [BTBD10] | 5.36 ± 0.28 | 5.54 ± 0.14 | – | – |
| HKYNTTSTSYSPLASLPLKADTKG [PLAGL1] | 4.23 ± 0.16 | 4.41 ± 0.2 | – | – |
| NKRCKDKKKSILMKQLQQQQHSDK [ISL2] | 4.45 ± 0.18 | 4.5 ± 0.12 | – | – |
| YEADCLAAAYGGKAAPAAPPAARP [CEBPB] | 4.49 ± 0.15 | 4.6 ± 0.2 | – | – |
| SQMSPLSLYGENSNSLSSAEPLKE [ATF6] | 5.01 ± 0.3 | 5.03 ± 0.22 | – | – |
| PWSLFDVLVEKYGWPHEDAAQFTD [SRPK2] | 2.61 ± 0.28 | 2.88 ± 0.51 | – | – |
| YSCACLASGSVLRLVDAVLGAEIR [HDAC6] | 3 ± 0.68 | 2.89 ± 0.66 | – | – |
| MSERLRPRKRRRNGNEEDNHLPPQ [FAM104A] | 5.3 ± 0.14 | 5.39 ± 0.14 | – | – |
| KWDGKSTTIKRKREDDKLVVECVM [FABP4] | 2.82 ± 0.3 | 2.83 ± 0.23 | – | – |
| LELSCDKFPPEEELQREWLGNREA [CPN1] | 4.95 ± 0.25 | 5.11 ± 0.16 | – | – |
| KFSNIVDKFVIVDCRYPYEYEGGH [CDC25B] | 2.47 ± 0.16 | 2.25 ± 0.62 | – | – |
| NLISLLALRVLAEQNIIPSATNVT [TENT5C] | 2.94 ± 0.39 | 3.12 ± 0.36 | – | – |
| LELLGATYVDKKRDLLGALKHWRR [FEM1A] | 2.48 ± 0.11 | 2.62 ± 0.3 | – | – |
| SSEEGWRLFKIDKEYLLKMATEE [SAT1] | – | – | 2.78 ± 0.62 | 2.88 ± 0.68 |
| PVAQSTDGIRGKVGHARGLHAWQI [SPSB4] | 2.68 ± 0.37 | 2.84 ± 0.29 | – | – |
| SEGLHLAGTAGHPPSGSQPLTSTQ [FBF1] | 5.07 ± 0.17 | 4.96 ± 0.23 | – | – |
| GYSSLDQSPDEKPLVALDTDSDDD [FAM219A] | 5.69 ± 0.17 | 5.48 ± 0.31 | – | – |
| KVHRARKTMPKSVVGLHAASKDPR [EHMT1] | 4.1 ± 0.16 | 4.08 ± 0.31 | – | – |
| PLPWSECPVVRNGSVAVVEAECEK [SLC6A17] | 5.443 ± 0.034 | 5.3 ± 0.29 | – | – |
| GLLNDTSAPHLENSGHTIFNDPFF [KCNA4] | 4.17 ± 0.19 | 4.28 ± 0.28 | – | – |
| GHTPLMEAGSAGHVEVARLLLENG [ANKRD17] | 4.22 ± 0.24 | 4.17 ± 0.24 | – | – |
| PARAGSEVEWTEDLALDLGPQSRE [C2CD2L] | 5.24 ± 0.23 | 5.31 ± 0.23 | – | – |

| Sequence | protein stability index [1] | protein stability index [2] | protein stability index [3] | protein stability index [4] |
| --- | --- | --- | --- | --- |
| SSFPGSLPQETNLTLKVCKPQAPQ | 4.09 ± 0.21 | 4.14 ± 0.38 | – | – |
| IYQYVQNSMAPHPARDYVVLRTWR [DLC1] | 1.93 ± 0.23 | 2.03 ± 0.37 | – | – |
| IASIGRHRYIAYMANQEAAIQAFL [IQUB] | 2.39 ± 0.73 | 2.17 ± 0.36 | – | – |
| IRESRLFGAVVRWAEAECQRQQLP [BTBD1] | 2.5 ± 0.16 | 2.46 ± 0.13 | – | – |
| VNRFGTYPALASKNGKKWEILNFN [ACSBG2] | 2.81 ± 0.28 | 2.71 ± 0.49 | – | – |
| VTEHPLELIRVEVEILDLNDNSPS [PCDHGC5] | 2.92 ± 0.29 | 3 ± 0.41 | – | – |
| PQKASAPAADPPRYTFAPSVSLNK [PDLIM7] | 4.33 ± 0.19 | 4.32 ± 0.22 | – | – |
| SHGYDMSTFIRRYSRYLNEKAFSY [SNAP91] | 2.17 ± 0.24 | 2.3 ± 0.52 | – | – |
| EDSLATVKVVLIPVGQEIVIPFKV [IQUB] | 2.86 ± 1.3 | 2.43 ± 0.98 | – | – |
| LDQLRFPNGVQLSPAEDFVLVAET [APMAP] | 3.09 ± 0.23 | 3.27 ± 0.23 | – | – |
| KEDGEPSWREAKVSWFGSPTTSFL [PWWP2B] | 2.95 ± 0.082 | 3.17 ± 0.55 | – | – |
| EVLRMCVAVKKKLQLYFWKDREFH [VPS39] | 2.49 ± 0.34 | 2.55 ± 0.34 | – | – |
| MAAEIQPKPLTRKPILLQRMEGSQ [WDFY2] | 4.05 ± 0.27 | 3.8 ± 0.38 | – | – |
| NQLQYMQNVVVKTLWKHQFAWPFY [BRD3] | 3.03 ± 0.46 | 2.64 ± 0.36 | – | – |
| CSVRPDASVSSHRFFGPNAEISQP [TCF25] | 3.57 ± 0.32 | 3.73 ± 0.092 | – | – |
| KREACHCEEVKMTVASEAKIQLSD [FAN1] | 4.76 ± 0.19 | 5 ± 0.18 | – | – |
| AIHSSDEDEDEDDEEDFEDDDEWE [WASL] | 4.48 ± 0.26 | 4.49 ± 0.27 | – | – |
| SHLLVAEPEKIYAMPDPTVPDSDI [ESRRG] | 5.04 ± 0.081 | 5.08 ± 0.13 | – | – |
| LEVKIHDWYQKQTPTSPECDYSQY [KRT15] | 2.81 ± 0.3 | 2.94 ± 0.25 | – | – |
| RRMCFVDPVRQCAECALVSLKEAE [ZFYVE21] | 2.98 ± 0.25 | 3.01 ± 0.64 | – | – |
| IPLDLGCTQVTQDGDIPNIPAEEN [FAM189A2] | 5.48 ± 0.12 | 5.48 ± 0.18 | – | – |
| THNIAHGSLGFEPVYVSCIAQDTC [SPAG8] | 2.69 ± 0.14 | 2.64 ± 0.2 | – | – |
| MANQEAAIQAFLDKCSAPKIWRTP [IQUB] | 3.11 ± 0.14 | 3.16 ± 0.34 | – | – |

| Sequence | protein stability index [1] | protein stability index [2] | protein stability index [3] | protein stability index [4] |
| --- | --- | --- | --- | --- |
| EDDKLVVECVMKGVTSTRVYERA [FABP4] | – | – | 3.03 ± 0.29 | 3.75 ± 0.42 |
| TNSSSLRLPRQNSDGGQKNKPREH [WSB1] | 5.02 ± 0.15 | 4.93 ± 0.072 | – | – |
| EEMEEEEEEEEEEDEDDDSADMDE [FBXO3] | 5.57 ± 0.15 | 5.59 ± 0.087 | – | – |
| TSIVYATEKKQTKVEFPEARIYEE [KCTD10] | 4.5 ± 0.12 | 4.21 ± 0.55 | – | – |
| ERRQTLNLISLLALRVLAEQNIIP [TENT5C] | 2.26 ± 0.88 | 2.15 ± 0.24 | – | – |
| FLHPDLGVGGAERLVLDAALALQA [ALG2] | 2.32 ± 0.43 | 2.27 ± 0.23 | – | – |
| FEAAFGTTPSTSSSSSFDPSVFDG [SNAP91] | 4.61 ± 0.12 | 4.53 ± 0.22 | – | – |
| GPIPSHMIHRTRKQKYFYKGGLVW [CLK3] | 2.47 ± 0.027 | 2.45 ± 0.24 | – | – |
| EVLSLGVQVPEAWEELLTMKVEAK [ZSCAN9] | 3.53 ± 0.67 | 3.45 ± 0.22 | – | – |
| LTHFSRRYCQCNPDDSTSEDGIHT [PSD2] | 3.6 ± 0.27 | 3.77 ± 0.3 | – | – |
| IHFIAVAVCLLGVGTMVGADILAG [SLC35F2] | 2.8 ± 0.18 | 3.31 ± 0.45 | – | – |
| VGSVSVDCGPSRADRCSPKEDQAW [FBXO34] | 3.66 ± 0.25 | 4.06 ± 0.33 | – | – |
| GLLDLNNAILQLVKKYKSMKLEKE [ESRRG] | 2.65 ± 0.14 | 2.9 ± 0.82 | – | – |
| GSRSNGMWAHSMTVQDYQDLIDRG [ATE1] | 3.92 ± 0.29 | 4.08 ± 0.29 | – | – |
| GQRLAVCVPAHPPPCAWACPVPAH [CTBP1-DT] | 2.7 ± 0.39 | 2.8 ± 0.1 | – | – |
| IENLAKANPQYTVYSQASTMSIPV [PPP2R5C] | 2.8 ± 0.22 | 2.65 ± 0.25 | – | – |
| RFYLPLLIHQHEKVIYLDDDVIVQ [GLT8D2] | 2.32 ± 0.56 | 1.97 ± 0.25 | – | – |
| GAGAEESELQAYIAQCQDSPTSGK [MCOLN1] | 5.41 ± 0.14 | 5.45 ± 0.17 | – | – |
| ERGLKKIRLGIEGYPTYKEKVKKR [BTBD10] | 3.59 ± 0.3 | 3.66 ± 0.33 | – | – |
| GELLLDVAWHPVRPIIASISSGVV [RBBP5] | 2.3 ± 0.54 | 2.42 ± 0.59 | – | – |
| PNVIDNFLCDLYPLLKLACTNTYV [OR4A15] | 2.87 ± 0.2 | 3.12 ± 0.29 | – | – |
| SRQDKPLSPAGSSQEAADTPDTRH [YJU2B] | 5.56 ± 0.14 | 5.46 ± 0.13 | – | – |
| DVKVGGSKYGIINLQSLKTPTLKV [DCAF4] | 2.62 ± 0.2 | 2.65 ± 0.28 | – | – |

| Sequence | protein stability index [1] | protein stability index [2] | protein stability index [3] | protein stability index [4] |
| --- | --- | --- | --- | --- |
| SDPQLIVQLRFCGRQPCGRFLRAY [TRADD] | 2.35 ± 0.69 | 2.11 ± 0.27 | – | – |
| AYDEALAELHAHGPAAFVDYFERN [ZSWIM9] | 3.73 ± 0.24 | 3.74 ± 0.34 | – | – |
| AVLTTHHHWDHARGNPELARLRPG [HAGHL] | 3.28 ± 0.17 | 3.4 ± 0.34 | – | – |
| HTLILMFIWFVCSLVYYGLTLSAG [SLC22A15] | 2.42 ± 0.79 | 2.16 ± 0.36 | – | – |
| CLLGLGSLVLILSLSYTVLIVGRI [SLC2A12] | 3.06 ± 0.48 | 3.26 ± 0.38 | – | – |
| RFELINIDDLEDDPVVNGERSGCA [TCF25] | 4.69 ± 0.26 | 4.68 ± 0.26 | – | – |
| DKERAVLLQRRKRENMSDGDTSAT [KMT2E] | 5.27 ± 0.062 | 5.39 ± 0.19 | – | – |
| SLGGCSQDFLLFSPEVESLPVASS [NFE2L1] | 2.49 ± 0.52 | 2.74 ± 0.24 | – | – |
| SSVYKQQWFAMLRAEQDSEVGPQE [GMCL1] | 4.08 ± 0.37 | 4.16 ± 0.24 | – | – |
| APRFSFNDPSGSEEADFLSAETGS [IRX6] | 5.36 ± 0.14 | 5.33 ± 0.24 | – | – |
| VSGGSRSLNMSRRDSESTRHDSET [PHTF1] | 5.25 ± 0.26 | 5.5 ± 0.14 | – | – |
| GVSFHIDSAELEPGSQTAVKNSNR [FBXO34] | 4.71 ± 0.26 | 5.03 ± 0.38 | – | – |
| DGMLYILGGEDGEKELISMECYDI [GAN] | 2.05 ± 0.18 | 2.26 ± 0.42 | – | – |
| RYVYRFVCDLQSLLGYTPEELHAM [ETS1] | 2.69 ± 0.65 | 2.5 ± 0.5 | – | – |
| IQLRRWQETRGELQCRSPPRLHGA [TBC1D10A] | 2.74 ± 0.23 | 2.85 ± 0.39 | – | – |
| GLGRPTPGLSQGPGKETLESALIA [EHMT1] | 3.95 ± 0.13 | 4.29 ± 0.22 | – | – |
| ILSGARVNAKDNMWLTPLHRAVAS [ANKRD44] | 2.34 ± 0.1 | 2.4 ± 0.27 | – | – |
| GNSISISALQSLLQHLIGLSNLTH [PRAME] | 2.54 ± 0.036 | 2.62 ± 0.41 | – | – |
| TTCSTPLLNSPPSFVCWSRGFMEM [AUP1] | 2.21 ± 0.26 | 2.33 ± 0.31 | – | – |
| SLASQVHAAAVNGDKGALQRLIVG [INVS] | 3.02 ± 0.22 | 3.19 ± 0.29 | – | – |
